The target of test [1] is calmodulin (CaM) (UniProt P62157). The test can be described thus: ELISA; 96-well MaxiSorp plates coated with 1 ug CaM at 4 C overnight, blocked with 4% BSA; 80 ng DAPK2 for 15 min at 30 C; detected with anti-DAPK2 antibody, HRP secondary and ABTS.
For test [2] the target is unchanged.

Chain of FLAG-DAPK2 S289D (Q9UIK4 whole entry, stated change not applied): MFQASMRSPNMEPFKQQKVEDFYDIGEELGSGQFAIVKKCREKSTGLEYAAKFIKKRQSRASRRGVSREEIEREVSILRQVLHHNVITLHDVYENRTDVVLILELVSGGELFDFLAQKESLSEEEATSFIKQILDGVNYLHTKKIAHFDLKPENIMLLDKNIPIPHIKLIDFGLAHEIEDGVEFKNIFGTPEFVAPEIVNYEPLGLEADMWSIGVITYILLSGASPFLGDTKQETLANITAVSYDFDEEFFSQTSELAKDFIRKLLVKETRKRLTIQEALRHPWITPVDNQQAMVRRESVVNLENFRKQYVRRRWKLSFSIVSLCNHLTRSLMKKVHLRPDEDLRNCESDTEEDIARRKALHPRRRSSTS
Chain of FLAG-DAPK2 S289A (Q9UIK4 whole entry, stated change not applied): as above

On to “DAPK2 S289D (ELISA CaM binding assay) (from UniProt Q9UIK4-1 1-370) (enzyme)”, for which, in the test with calmodulin (CaM) [1], the fold lower ELISA signal than DAPK2 WT was 5 fold.
The substance “FLAG-DAPK2 S289A (from UniProt Q9UIK4-1 1-370) (enzyme)” showed a fold induction of the catalytic activity (MLC phosphorylation, in vitro kinase assay) upon addition of Ca2+/CaM against EGTA with calmodulin (CaM) [2] of 5.4 fold.
In turn, “FLAG-DAPK2 S289D (from UniProt Q9UIK4-1 1-370) (enzyme)” had a fold induction of the catalytic activity (MLC phosphorylation, in vitro kinase assay) upon addition of Ca2+/CaM against EGTA with calmodulin (CaM) [2] of 1.6 fold.

The values above are taken from article PMC5931534.
